Reference: paper PMC10060354, “Discovery of a small molecule ligand of FRS2 that inhibits invasion and tumor growth” (Cellular Oncology, 2022)
Ends that are not written are not given here.

T1: FRS2_PTB (Homo sapiens, UniProt Q8WU20)
T1 construct: FRS2-PTB 11-140aa; 6xHis; made in house; host or cells: E. coli BL21 (DE3)
T1 sequence (Q8WU20 11-140): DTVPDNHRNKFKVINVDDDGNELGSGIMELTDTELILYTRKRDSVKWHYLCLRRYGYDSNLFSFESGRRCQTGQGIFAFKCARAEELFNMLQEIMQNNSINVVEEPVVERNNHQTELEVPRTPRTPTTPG

T2: GB1-FRS2-PTB (Homo sapiens, UniProt Q8WU20)
T2 construct: FRS2-PTB 11-140aa; 6xHis (N); made in house; host or cells: E. coli BL21 (DE3)
T2 sequence (Q8WU20 11-140): T1 sequence (Q8WU20 11-140)

T3: GB1-FRS2_PTB (human, UniProt Q8WU20 15-135, 2nd Generation BLUE-NHS dye (in the MST only))
T3 construct: Fibroblast growth factor receptor substrate 2 (FRS2), human, PTB domain, residues 15 to 135; Vector pEM3BT2; also called GB1-fused PTB domain; source: E. coli BL21 (DE3), purified (Ni-NTA); not shown: His6, N-terminal, kept
T3 sequence (looked up): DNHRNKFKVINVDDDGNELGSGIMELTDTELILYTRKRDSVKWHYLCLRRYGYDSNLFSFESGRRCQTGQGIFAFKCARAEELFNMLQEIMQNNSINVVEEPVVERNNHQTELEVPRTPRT

T4: FRS2_PTB (PTB domain of human FRS2) (human, UniProt Q8WU20 15-135)
T4 construct: Fibroblast growth factor receptor substrate 2 (FRS2), human, PTB domain, residues 15 to 135 as the methods state for the PTB domain constructs; The limits 15-135 are stated in the methods sentence that describes the GB1 fusions; also called FRS2-PTB domain; PTB domain of FRS2; source: E. coli BL21 (DE3), purified (Ni-NTA)
T4 sequence (looked up): T3 sequence (looked up)


Key:
FRS2_PTB = target: T1, FRS2_PTB; assay: nano differential scanning fluorimetry (nanoDSF); format: binding; settings: 500 μM ligand
Method: (§1) Assay establishment and pilot nanoDSF experiments were performed with a Tycho® system. Each experiment was performed by mixing the protein and ligand of interest at a 1:1 ratio and subsequent incubation for 15–30 min at room temperature. Controls of protein alone and ligand alone in identical buffer compositions as for the complex were measured accordingly. The temperature gradient ranged from 35 to 95 °C, and the heating rate was 30 °C/min. Inflection temperatures TI were calculated from the first derivative of the spectra obtained at the ratio of the signals at 350 nm to those at 330 nm. ΔTI of a complex was calculated as following: ΔTI,complex = TI,complex – TI,protein.
The in-built software version 1.1.5.668 (NanoTemper Technologies, Munich, Germany) and Microsoft Office Excel 365 (Microsoft Corp., Seattle, USA) was used for data analysis. Data was plotted with GraphPad Prism vers. 8.3.0 (GraphPad Software, San Diego, USA).
Purified FRS2_PTB or GB1_FRS2_PTB protein tagged with 6 × Histidine residues and the B1 immunoglobulin binding domain of the streptococcal protein G (GB1) were diluted in the protein buffer (100 mM sodium phosphate, 50 mM NaCl, 0.5 mM EDTA, 50 mM arginine, 1 mM TCEP, pH 7.0) to 30 μM, GB-1 to 40 μM. FGFR_PEP, compounds or paracetamol (PARA) as negative control were dissolved at 1 mM in the protein buffer supplemented with 10% DMSO. Compound and protein were mixed at 1:1 volume ratio yielding a final concentration of 15 μM and 20 μM for FRS2_PTB/GB1_FRS2_PTB and GB1, respectively, as well as 500 μM for FGFR_PEP or compounds. The mixture was incubated for 15 min. Each compound was measured in triplicates. Protein controls were measured in six replicates in the beginning. The quality of the screen was assessed by the Z-factor. nanoDSF validation studies were performed on a Prometheus® system in high sensitivity capillaries. Samples were heated with 1 °C/min from 20 to 95 °C. Each compound was measured in triplicates. GB1-FRS2_PTB and GB1 were diluted in the protein buffer (100 mM sodium phosphate, 50 mM NaCl, 0.5 mM EDTA, 50 mM arginine, 1 mM TCEP, pH 7.0) to 30 μM. Compounds 3.3, 3.4, 3.18 as well as the 3.18 analogues were dissolved in 100% DMSO at 50 or 100 mM and further diluted to 1 mM with a final DMSO-concentration of 100%. FGFR_PEP was dissolved at 1 mM in the protein buffer supplemented with 10% DMSO. Compound and protein were mixed at 1:1 volume ratio yielding final concentrations of 15 μM protein and 500 μM for the compounds. FGFR_PEP was measured against both GB1-FRS2_PTB and GB1, all other compounds only against GB1-FRS2_PTB. The mixture was incubated for 15 min before measurement. The data was analyzed for both the ratio of signals at 330 and 350 nm and at 350 nm alone. […]

GB1-FRS2-PTB = target: T2, GB1-FRS2-PTB; assay: nanoDSF with GB1-fused PTB domain; format: binding
Method: as §1, with “TI,protein. […]” for “TI,protein.”
Purified FRS2_PTB or GB1_FRS2_PTB protein tagged with 6 × Histidine residues and the B1 immunoglobulin binding domain of the streptococcal protein G (GB1) were diluted in the protein buffer (100 mM sodium phosphate, 50 mM NaCl, 0.5 mM EDTA, 50 mM arginine, 1 mM TCEP, pH 7.0) to 30 μM, GB-1 to 40 μM. […] Each compound was measured in triplicates. Protein controls were measured in six replicates in the beginning. The quality of the screen was assessed by the Z-factor. nanoDSF validation studies were performed on a Prometheus® system in high sensitivity capillaries. […] Each compound was measured in triplicates. […] FGFR_PEP was measured against both GB1-FRS2_PTB and GB1, all other compounds only against GB1-FRS2_PTB. […]

GB1-FRS2_PTB [1] = target: T3, GB1-FRS2_PTB; assay: nanoDSF (thermal shift); 15 uM protein mixed with 500 uM FGFR_PEP, incubated 15 min; 100 mM sodium phosphate, 50 mM NaCl, 0.5 mM EDTA, 50 mM arginine, 1 mM TCEP, pH 7.0, with DMSO; shift of the inflection or melting temperature against protein alone; settings: both partners purified
[2] = target: T4, FRS2_PTB (PTB domain of human FRS2); assay: as above; settings: both partners purified
GB1-FRS2_PTB [3] = target: T3, GB1-FRS2_PTB; assay: MST; GB1-FRS2_PTB labelled with BLUE-NHS dye at 25 nM; FGFR_PEP in 1:1 serial dilution from 1 mM to 61.04 nM; 25 C; 100 mM sodium phosphate, 50 mM NaCl, 0.5 mM EDTA, 50 mM arginine, 1 mM TCEP, pH 7.0, with and without DMSO; MST trace analysis; settings: both partners purified

nanoDSF shift of the inflection point of the melting curve (ΔTm) (FRS2_PTB) | nanoDSF shift in the melting temperature (GB1-FRS2-PTB) | Kd (GB1-FRS2_PTB [3]) | Molecule | shift in the melting temperature (nanoDSF) (GB1-FRS2_PTB [1]) | shift of the inflection point of the melting curve (nanoDSF) [2]
19 ± 0.1 °C | 10.5 ± 0.1 °C | – | HSQMAVHKLAKSIPLRRQVTVS [FGFR peptide, reference compound] | – | –
– | – | 1000 ± 200 nM | HSQMAVHKLAKSIPLRRQVTVS (also called FGFR1 peptide) [FGFR peptide (FGFR_PEP)] | 10.5 ± 0.1 °C | 19 ± 0.1 °C
